Measurements as given in the RNAGym collection of RNA variant scans (doi:10.7554/elife.80360).

B1: CPEB3 Ribozyme (parent)
chain: GGGGGCCACAGCAGAAGCGUUCACGUCGCGGCCCCUGUCAGAUUCUGGUGAAUCUGCGAAUUCUGCUGU

Variants of: B1
Assay: self-cleavage, relative activity (ratio to wild type); higher = more cleavage; co-transcriptional

Row | Variant | self-cleavage
1 | GUGGCCCACAGCAGAAGCGUUCACGUCGCGGCCCCUGUCAGAUUCUGGUGAAUCUGCGAAUUCUGCUGU [G2U G5C] | 0.0693
2 | GUGGACCACAGCAGAAGCGUUCACGUCGCGGCCCCUGUCAGAUUCUGGUGAAUCUGCGAAUUCUGCUGU [G2U G5A] | 0.0678
3 | GUGGGCCACAGCAGAAGCGUUCACGUCGCGGCCCCUGUCAGAUUCUGGUGAAUCUGCGAGUUCUGCUGU [G2U A60G] | 0.0636
4 | GUGGGCCACAGCAGAAGCGUCCACGUCGCGGCCCCUGUCAGAUUCUGGUGAAUCUGCGAAUUCUGCUGU [G2U U21C] | 0.0789
5 | GUGGGCCACAGCAGAAGCGUUCACGUCGCGGCCCCUGUCGGAUUCUGGUGAAUCUGCGAAUUCUGCUGU [G2U A40G] | 0.0279
6 | GCGGGCCACAGCAGAAGCGUUCACGUCGCGGCCCCGGUCAGAUUCUGGUGAAUCUGCGAAUUCUGCUGU [G2C U36G] | 0.052
7 | GCGGGCCACAGCAGAAGCGUUCACGUCGCGGCCCCAGUCAGAUUCUGGUGAAUCUGCGAAUUCUGCUGU [G2C U36A] | 0.0481
8 | GUGGGCCACAGCAGACGCGUUCACGUCGCGGCCCCUGUCAGAUUCUGGUGAAUCUGCGAAUUCUGCUGU [G2U A16C] | 0.0327
9 | GUGGGCCACAGCAGAGGCGUUCACGUCGCGGCCCCUGUCAGAUUCUGGUGAAUCUGCGAAUUCUGCUGU [G2U A16G] | 0.0825
10 | GUGGGCCACAGCAGAAGCGUUCACGACGCGGCCCCUGUCAGAUUCUGGUGAAUCUGCGAAUUCUGCUGU [G2U U26A] | 0.0542
11 | GUGGGCCACAGCAGAAGCGUUCACGCCGCGGCCCCUGUCAGAUUCUGGUGAAUCUGCGAAUUCUGCUGU [G2U U26C] | 0.077
12 | GUGGGCCACAGCAGAAGCGUUCACGUCGCGGCCCCUGUCAGAUUCUGGUGAAUCUGCGAAUUCUGAUGU [G2U C66A] | 0.073
13 | GUGGGCCACAGCAGAAGCGUUCACGUCGCGGCCCCUGUCAGAUUCUGGUGAAUCUGCGAAUUCUGUUGU [G2U C66U] | 0.096
14 | GUGGGCCACAGCAGAAGCGUUCACGUCGCGGCCCCUGUCAGAUUCUAGUGAAUCUGCGAAUUCUGCUGU [G2U G47A] | 0.0706
15 | GUGGGCCACAGCAGAAGCGUUCACGUCGCGGCCCCUCUCAGAUUCUGGUGAAUCUGCGAAUUCUGCUGU [G2U G37C] | 0.0385
16 | GUGGGCCACAGCAGAAGCGUUCACGUCGCGGACCCUGUCAGAUUCUGGUGAAUCUGCGAAUUCUGCUGU [G2U C32A] | 0.107
17 | GUGGGCCACAGCAGAAGCGAUCACGUCGCGGCCCCUGUCAGAUUCUGGUGAAUCUGCGAAUUCUGCUGU [G2U U20A] | 0.0261
18 | GUGGGCCACAGCAGGAGCGUUCACGUCGCGGCCCCUGUCAGAUUCUGGUGAAUCUGCGAAUUCUGCUGU [G2U A15G] | 0.0981
19 | GUGGGCCACAGCAGAAGCGUUCACGUCGCGGCCCCUGUCACAUUCUGGUGAAUCUGCGAAUUCUGCUGU [G2U G41C] | 0.0505
20 | GUGGGCCACAGCAGAAGCGUUCACGUCGCGGCCCCUGUCAUAUUCUGGUGAAUCUGCGAAUUCUGCUGU [G2U G41U] | 0.0665

Row | Variant | self-cleavage
21 | GUGGGCCACAGCAGAAGCGUUCACGUCGCGGCCCCUGUCAGAUUCGGGUGAAUCUGCGAAUUCUGCUGU [G2U U46G] | 0.0727
22 | GUGGGCCACAGCAAAAGCGUUCACGUCGCGGCCCCUGUCAGAUUCUGGUGAAUCUGCGAAUUCUGCUGU [G2U G14A] | 0.0496
23 | GUGGGCCACAGCAGAAGCGUUCACGUCGCGGCCCCUGUCAGAUUCUGGAGAAUCUGCGAAUUCUGCUGU [G2U U49A] | 0.0944
24 | GCGGGCCACAGCAGAAGCGUUCACGUCGCGGCCCCUGUCAGAUUCUGAUGAAUCUGCGAAUUCUGCUGU [G2C G48A] | 0.0788
25 | GUGGGCCACAGCAGAAGCGUUCACGUCGCGGCCUCUGUCAGAUUCUGGUGAAUCUGCGAAUUCUGCUGU [G2U C34U] | 0.103
26 | GCGGGCCACAGCAGAAGCGUUCACGUCGCGGCCCCUGACAGAUUCUGGUGAAUCUGCGAAUUCUGCUGU [G2C U38A] | 0.0483
27 | GUGGGCCACAGCAGAAGCGUUCACGUCGCCGCCCCUGUCAGAUUCUGGUGAAUCUGCGAAUUCUGCUGU [G2U G30C] | 0.0703
28 | GUGGGCCACAGCAGAAGCGUUCACGUCGCAGCCCCUGUCAGAUUCUGGUGAAUCUGCGAAUUCUGCUGU [G2U G30A] | 0.0872
29 | GCGGGCCACAGCAGAAGCGUUCACGUCGCGGCCCCUGUCAGAUUCUAGUGAAUCUGCGAAUUCUGCUGU [G2C G47A] | 0.0652
30 | GCGGGCCACAGCAGAAGCGUUCACGUCGCGGCCCCUGUCAGAUUCUUGUGAAUCUGCGAAUUCUGCUGU [G2C G47U] | 0.0378
31 | GUGGGCCACAGCAGAAGCGUUCACGUCGUGGCCCCUGUCAGAUUCUGGUGAAUCUGCGAAUUCUGCUGU [G2U C29U] | 0.0589
32 | GUGGGCCACAGCGGAAGCGUUCACGUCGCGGCCCCUGUCAGAUUCUGGUGAAUCUGCGAAUUCUGCUGU [G2U A13G] | 0.0748
33 | GCGGGCCACAGCAGAAGCGUUCACGUCGCGGCCCCUGUCAGAUACUGGUGAAUCUGCGAAUUCUGCUGU [G2C U44A] | 0.0552
34 | GCGGGCCACAGCAGAAGCGUUCACGUCGCGGCCCCUGUCAGAUGCUGGUGAAUCUGCGAAUUCUGCUGU [G2C U44G] | 0.06
35 | GCGGGCCACAGCAGAAGCGUUCACGUCGCGGCCCCUGUCAGAUUCUGGUGAAUCUGCGAAUUCUGCUUU [G2C G68U] | 0.0864
36 | GCGGGCCACAGCAGAAGCGUUCACGUCGCGGCCCCUGUCAGAUUCUGGUGAAUCUGCGAAUUCUGCUGG [G2C U69G] | 0.0519
37 | GUGGGCCACAGCAGAAGUGUUCACGUCGCGGCCCCUGUCAGAUUCUGGUGAAUCUGCGAAUUCUGCUGU [G2U C18U] | 0.0941
38 | GUGGGCCACAGCAGAAGAGUUCACGUCGCGGCCCCUGUCAGAUUCUGGUGAAUCUGCGAAUUCUGCUGU [G2U C18A] | 0.0495
39 | GUGGGCCAUAGCAGAAGCGUUCACGUCGCGGCCCCUGUCAGAUUCUGGUGAAUCUGCGAAUUCUGCUGU [G2U C9U] | 0.176
